# Reference: article PMC4754655 (Scientific Reports, 2016)
# Residue numbers refer to the chain shown, from its start.
# B1: GEBT412, inferred germline (igL) reverted IgG (antibody, V domains shown)
# VH: QVQLVESGGGLVQPGGSLRLSCAASGFTFSSYGMHWVRQAPGKGLEWVAVIWYDGSKKYYADSVKDRFTISRDNSKNMLYLQMNNLKLEDTAVYYCARRGCTGSGCYLYYYGLDSWGQGVVVTVSS
# VL: DIQMTQSPSSLSASVGDTVTITCRASQGISSYLNWFQQKPGKAPKLLIYAASSLESGVPSRFSGSGSGTEFTLTISSLQPEDFATYYCLQHNFYPYSFGQGTKVEIK
# notes: also called igL GEBT412
# B2: GEBT391, inferred germline (igL) reverted IgG (antibody, V domains shown)
# VH: B1 VH with Q1E, G112A
# VL: B1 VL
# notes: also called igL GEBT391; gL-reverted GEBT391
# B3: GEBT404, mature IgG (antibody, V domains shown)
# VH: EVQLVESGGGLAKPGGSLRLSCAASGFTFSNYWMYWVRQAPGKGLEWISAINSAGSRTYYPDSVKGRFTISRENAKNTLYLQMDSLRAEDTAVYYCAKGRIAIFGLVITYFDYWGQGVLVTVSS
# VL: DIQMTQSPSSLSASVGDRVTITCRASQGITNDLAWYQQKPGETPKLLIYDASSLQSGIPSRFSGSGSGTDFTLTISSLQPEDFATYYCQHYYSTPPTFGGGTKVEIK
# B4: GEBT414, mature IgG (antibody, V domains shown)
# VH: EVQLVQSGAEVKRPGESLRISCKTSGYSFTGSWISWVRQMPGKGLDWMGNIYPGDSDTRYNPSFQGHVTISADKSISTTYLQWSSLKASDTATYYCAKGGGITIFGLLHYPLDSWGQGVVVTVSS
# VL: DIQMTQSPSSLSASVGDTVTITCRASQGINNWLAWYQQKPGKAPKLLIYKASSLQSGVPSRFSGSGSGTDFTLTISSLQSEDFATYYCQQYNSGPLTFGGGTKVEIK
# B5: GEBT403, mature IgG (antibody, V domains shown)
# VH: EVQLVQSGAEVKKPGSSVKVSCKASGYTFTDYYMHWVRQAPGQGLEWMGEINPKTGGTNYAQKFQGRVTMTRDTSTSTAYMELSSLRSEDTAIYSCARGGQRLIPLRRFYFYYWGQGVLVTVSS
# VL: QSVLTQPPSVSGAPGQKVTISCTGSSSNIGGYDVHWYQQLPGMAPKLLIYDNNERPSGISDRFSGSKSGTSASLAITGLQTEDEADYYCQSYDSSMNAWVFGGGTRLTVL
# notes: also called mature GEBT403
# B6: GEBT391, mature IgG (antibody, V domains shown)
# VH: B1 VH with Y53F, K57E, A61V, E89D, G112A
# VL: B1 VL with S52T, S53T, E55Q, E70D
# B7: GEBT412, mature IgG (antibody, V domains shown)
# VH: B1 VH with S21A, T28I, S31N, Y32H, K57E, E89V
# VL: B1 VL with Y32H, S52T, S53T, E55Q, E70D
# B8: GEBT383, mature IgG (antibody, V domains shown)
# VH: QVQLQESGPAVVKPSETLSLTCAVSGGSISSSNWWSWIRQSPGKGLEWIGGVYGSSGSTEYNPSLKSRVTISIDTSKNQFSLKLSSVTAADTAVYYCVRHCTWYNNIWNGYYNGFDYWGQGVLVTVSS
# VL: QSALTQPPSVSGAPGQRVTISCTGSSSNIGGYYVSWYQQLPGTVPKLLIYENKKRPSGVSDRFSGSKSGTSASLTITGLQPGDEADYYCSAWDNSLSSHVFGSGTKLTVL
# notes: also called non-CD4bs-directed mAb
# B9: GEBT404, inferred germline (igL) reverted IgG (antibody, V domains shown)
# VH: B3 VH with Y35H, R57S, P61A, S85G
# VL: B3 VL with R24Q, D50E, P80S
# notes: also called igL GEBT404; gL-reverted GEBT404
# Biological target: T1, YU2 gp120, soluble monomer (HIV-1 isolate YU2 (clade B), UniProt P35961)
# Assay: BLI
# Conditions: both partners purified
row,Binder,binding result
1,B1,binds
2,B2,binds

# Biological target: T1, YU2 gp120, soluble monomer
# Assay: ELISA; Env glycoprotein coated at 2 ug/ml in PBS pH 7.4 overnight at 4 C; IgG 5-fold serially diluted, 1 hour at RT; HRP goat anti-human IgG (H+L)
# Conditions: both partners purified
row,Binder,binding result
1,B3,binds
2,B4,binds
3,B5,binds
4,B6,binds
5,B7,binds

# Biological target: T2, YU2 gp140-foldon trimer (HIV-1 isolate YU2 (clade B), UniProt P35961, stabilised)
# T2 construct: also called eliciting gp140-F immunogen; gp140 trimers; source: 293 F cells; not shown: His tag, C-terminal, kept
# Assay: as above
# Conditions: both partners purified
row,Binder,binding result
1,B8,binds
2,B3,binds
3,B4,binds
4,B5,binds
5,B6,binds
6,B7,binds
7,B2,binds

# Biological target: T3, JRFL gp140-F trimer (HIV-1 isolate JRFL (clade B), UniProt Q75760, stabilised)
# T3 construct: also called JRFL foldon trimers; source: 293 F cells
# Assay: as above
# Conditions: both partners purified
row,Binder,binding result
1,B3,binds
2,B9,binds
3,B4,binds
4,B5,binds
5,B6,binds
6,B7,binds
7,B1,binds
8,B2,binds
